Measurements: PMC12511625

Experiments:
[1] = molecular target: S. venezuelae ParB (wild type, recombinant, cleaved from GST) (S. venezuelae); conditions: scale: μmol of phosphate released by 1 μmol of ParB in one hour
[2] = molecular target: S. venezuelae ParB_(SMC-) variant (TDR 132-134 to AAT, D164R) (S. venezuelae); conditions: scale: μmol of phosphate released by 1 μmol of ParB in one hour

CTP hydrolysis (phosphate released) by ParB (2 μM) with parS-containing plasmid DNA and FLAG-SMC (0.02 μM, 1:100 molar ratio); without FLAG-SMC 65.1 +/− 2.9 [1]: 35.2
CTP hydrolysis (phosphate released) by ParB (SMC-) (2 μM) with parS-containing plasmid DNA and FLAG-SMC (1:100 molar ratio); without FLAG-SMC 46.7 +/− 3.9; said to be similar with and without SMC [2]: 39
Substance: FLAG-SMC of S. venezuelae (natural protein)
